Experiments:
[1] = target: human PD-L1 on tumor cells (human) (UniProt Q9NZQ7); experiment: FACS staining of HCT116 cells with the control antibody; triplicates
[2] = target: human PD-L1 on tumor cells (human) (UniProt Q9NZQ7); experiment: FACS staining of MDA-MB-231 cells with the control antibody; triplicates

Chain of human PD-L1 on tumor cells (human) (Q9NZQ7 19-290 limits assumed): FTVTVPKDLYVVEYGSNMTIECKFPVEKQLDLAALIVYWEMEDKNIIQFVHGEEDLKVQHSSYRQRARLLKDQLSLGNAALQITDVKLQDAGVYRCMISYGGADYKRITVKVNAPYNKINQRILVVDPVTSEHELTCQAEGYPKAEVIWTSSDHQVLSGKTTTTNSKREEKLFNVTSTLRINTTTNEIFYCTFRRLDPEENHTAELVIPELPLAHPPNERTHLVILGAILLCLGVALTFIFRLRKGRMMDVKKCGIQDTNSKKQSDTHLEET

PD-L1 (MFI) [1]: 10900 MFI
PD-L1 (MFI) [2]: 74600 MFI
Substance: anti-PD-L1 RG7446 MPDL3280A (antibody)
